B1: hu28 VH1.0/VL1.0: humanized r28 variant VH1.0/VL1.0, anti-Notch3 antibody (VH SEQ ID NO: 13, VL SEQ ID NO: 25) (antibody, V domains shown)
VH: EVQLVESGGGLVQPGGSLRLSCAASGFTFRDYGMTWVRQAPGKGLEWVAYISSGSNYIYYAEAVKGRFTISRDNAKNSLYLQMNSLRAEDTAVYYCARRGPFVLDAWGQGTLVTVSS
VL: DIQMTQSPSSLSASVGDRVTITCKASQSINRYLHWYQQKPGKAPKLLIYNANGLQTGVPSRFSGSGSGTDFTLTISSLQPEDFATYYCLQHNTWPDTFGGGTKVEIK
B2: ch75: rat-human chimeric anti-Notch3 antibody 75, rat variable regions fused with human IgG1 and human kappa (antibody, V domains shown)
VH: QVKLLQSGAALVKPGASVKMSCKASGYAFTDYWVTWVKQSHGKSLEWIGEISPNSGGTNFNEKFKGKATLTVDKSTSTAYMELSRLTSEDSAIYYCTRGEIRYNWFAYWGQGTLVTVSS
VL: NIVMTQSPKSMSISVGDRVTMNCKASQNVGNNIAWYQQKPGQSPKLLIYYASNRYTGVPDRFTGGGYGTDFTLTINSMQAEDAAFYYCQRLYNSPFTFGSGTKLEIK

How the values were obtained:
human Notch2 NRR-Fc = target: T1, human Notch2 NRR-Fc (Homo sapiens, UniProt Q04721); experiment: Binding to Notch2 NRR-Fc; details: N/B = non-binding
T1 construct: Expression constructs encoding human Notch1 and Notch2 NRR regions, fused with human IgG1 Fc fragments; made in house; host or cells: CHO-PACE cells
T1 sequence (Q04721 1425-1677 limits assumed): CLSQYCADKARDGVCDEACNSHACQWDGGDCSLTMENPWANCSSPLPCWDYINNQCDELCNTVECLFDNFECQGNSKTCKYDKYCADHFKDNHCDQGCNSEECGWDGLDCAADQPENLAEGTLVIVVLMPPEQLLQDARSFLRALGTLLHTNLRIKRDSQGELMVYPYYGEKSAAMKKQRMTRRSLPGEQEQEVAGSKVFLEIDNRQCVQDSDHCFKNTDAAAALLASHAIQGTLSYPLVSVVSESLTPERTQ
Text: (§1) Other members of the Notch receptor family play important roles in biological processes. For example, a Notch1 or Notch2 deficiency leads to embryonic death in mouse models. In contrast, a Notch4 deficiency results in no detectable phenotype in mouse models. The closest homologues of the Notch3 NRR region are Notch1 and Notch2 (˜50% homology), and Notch4 is a more distant homologue (˜30% homology). Cross-reactivity of anti-Notch3 antibodies to other members of the Notch family, especially Notch1 and 2, may lead to undesired effects in patients. Therefore, the potential cross-reactivity of r28 and hu28, along with r75 and hu75 to other Notch family members were assessed.
(§2) Expression constructs encoding human Notch1 and Notch2 NRR regions, fused with human IgG1 Fc fragments were stably introduced into CHO-PACE cells. Conditioned media from these cells expressing NRR-Fc fusions were collected. Human Notch2 NRR-Fc and human Notch1 NRR-Fc were purified by protein A affinity followed by size exclusion chromatography (SEC). Purified preparations were dialysed into TBS with 1 mM CaCl2 and analyzed on analytical SEC to be >99% in purity.

human Notch1 NRR-Fc = target: T2, human Notch1 NRR-Fc (Homo sapiens, UniProt P46531); experiment: Binding to Notch1 NRR-Fc; details: N/B = non-binding
T2 construct: Expression constructs encoding human Notch1 and Notch2 NRR regions, fused with human IgG1 Fc fragments; made in house; host or cells: CHO-PACE cells
T2 sequence (P46531 1446-1733 limits assumed): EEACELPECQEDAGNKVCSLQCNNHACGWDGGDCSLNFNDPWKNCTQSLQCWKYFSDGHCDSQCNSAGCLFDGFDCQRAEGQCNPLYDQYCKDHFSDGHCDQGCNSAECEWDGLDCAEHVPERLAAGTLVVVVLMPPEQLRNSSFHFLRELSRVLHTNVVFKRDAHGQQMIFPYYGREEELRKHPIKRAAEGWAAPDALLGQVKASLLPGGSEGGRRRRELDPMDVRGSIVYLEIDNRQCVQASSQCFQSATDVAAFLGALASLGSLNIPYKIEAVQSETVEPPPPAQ
Text: as §1, §2

[1] = target: T3, human Notch3 NRR recombinant protein (Homo sapiens, UniProt Q9UM47); experiment: Surface plasmon resonance (Biacore) kinetic analysis; format: binding; details: antibody captured; 1:1 Langmuir model
T3 construct: made in house
T3 sequence (Q9UM47 with tags, fused parts or gaps): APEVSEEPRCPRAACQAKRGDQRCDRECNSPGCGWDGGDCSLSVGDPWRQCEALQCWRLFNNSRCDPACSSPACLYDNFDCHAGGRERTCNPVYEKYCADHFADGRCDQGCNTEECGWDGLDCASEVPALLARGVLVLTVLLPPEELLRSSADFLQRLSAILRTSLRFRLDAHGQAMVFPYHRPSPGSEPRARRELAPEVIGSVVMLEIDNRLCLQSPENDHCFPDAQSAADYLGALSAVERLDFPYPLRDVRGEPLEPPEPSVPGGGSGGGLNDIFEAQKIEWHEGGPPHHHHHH
Experimental: The kinetic constants of the anti-Notch3 NRR interactions were determined by surface plasmon resonance (Biacore® T100, Biacore Inc., Piscataway, N.J.). Flow cells of a CM5 chip were immobilized with approximately 10,000 response units (RU) of anti-human IgG-Fc (Biacore®) in 10 mM Glycine, pH 5.0 at 10 μl/min for 600 seconds. 10 μg/ml of anti-Notch3 antibodies ch28 and hu28, and ch75 and hu75 were diluted in TBS with 1 mM CaCl2 were captured at 10 μl/min. Association of four concentrations of human Notch3 NRR recombinant protein (from 3.7-100 nM) and a zero concentration (running buffer) at 100 μl/min were recorded for 3 minutes in TBS with 1 mM CaCl2. Dissociation of the complexes was measured for 10 minutes. The surface of the chip was regenerated by injecting 3M MgCl2 with 3 mM EGTA for 60 seconds at 10 μl/min. Curves obtained after subtraction of the reference and buffer signals were fitted to a 1:1 Langmuir binding model with Biacore® T100 Evaluation Software (Biacore®).

[2] = Thermal stability by differential scanning calorimetry (DSC); format: physicochemical; details: 0.3 mg/ml in PBS
Experimental: There is a positive correlation between the thermal stability of a protein or protein domain with the overall stability of the protein or protein domain. A higher melting point of a protein or protein domain often provides improved manufacturability and longer shelf life. Differential scanning calorimetry (DSC) was used to assess the thermal stability of hu28 and hu75 versus ch28 and ch75, respectively. Protein samples were diluted in PBS to 0.3 mg/ml in a volume of 250 μl. The corresponding formulation buffer blank was used for the reference sample. Both samples were thoroughly degassed using a MicroCal ThermoVac Sample Degassing and Thermostat (Microcal, Inc., Northampton, Mass.) set to 8° C. Samples were dispensed into the appropriate cells of a MicroCal VP-DSC Capillary Cell MicroCalorimter (MicroCal, Inc., Northampton, Mass.). Samples were equilibrated for 4 minutes at 15° C. and then scanned up to 100° C. at a rate of 100° C. per hour. A filtering period of 20 seconds was selected. Raw data was baseline corrected and the protein concentration was normalized. Origin Software (OriginLab Corporation, Northampton, Mass.) was used to fit the data to an MN2-State Model with an appropriate number of transitions.

Row | Molecule | Binding to Notch2 NRR-Fc (human Notch2 NRR-Fc) | Binding to Notch1 NRR-Fc (human Notch1 NRR-Fc) | ka [1] | kd [1] | Tm ± Standard Deviation, CH2 [2] | Tm ± Standard Deviation, CH3 [2] | Tm ± Standard Deviation, Fab [2]
1 | B1 | N/B | N/B | 386000 M⁻¹ s⁻¹ | 0.000347 s⁻¹ | 72.63 ± 0.03 °C | 83.45 ± 0.17 °C | 83.45 ± 0.17 °C
2 | B2 | N/B | N/B | 57000 M⁻¹ s⁻¹ | 0.000992 s⁻¹ | 73.32 ± 0.01 °C | 84.59 ± 0.03 °C | 73.32 ± 0.01 °C

— US9433687B2, “Anti-Notch3 antibodies and antibody-drug conjugates” (Pfizer Inc., priority 2012, dated 2016)
